Patent US20250042994A1 (HAINAN SIMCERE ZAIMING PHARMACEUTICAL, published 2025)

T1: murine CD19 protein (murine, UniProt P25918 17-287, limits assumed)
T1 construct: bought protein; also called commercial murine CD19
T1 sequence (looked up): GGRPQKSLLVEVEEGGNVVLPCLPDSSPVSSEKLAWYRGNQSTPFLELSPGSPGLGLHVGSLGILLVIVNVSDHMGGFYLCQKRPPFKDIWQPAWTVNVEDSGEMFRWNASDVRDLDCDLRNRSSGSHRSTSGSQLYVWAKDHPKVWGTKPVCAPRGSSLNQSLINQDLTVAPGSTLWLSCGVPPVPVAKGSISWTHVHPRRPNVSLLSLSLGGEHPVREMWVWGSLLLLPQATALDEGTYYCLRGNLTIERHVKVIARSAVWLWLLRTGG

T2: Human CD19-his protein (human, UniProt P15391 20-291)
T2 construct: bought protein; also called human CD19 protein; recombinant human CD19-His; not shown: His tag
T2 sequence (looked up): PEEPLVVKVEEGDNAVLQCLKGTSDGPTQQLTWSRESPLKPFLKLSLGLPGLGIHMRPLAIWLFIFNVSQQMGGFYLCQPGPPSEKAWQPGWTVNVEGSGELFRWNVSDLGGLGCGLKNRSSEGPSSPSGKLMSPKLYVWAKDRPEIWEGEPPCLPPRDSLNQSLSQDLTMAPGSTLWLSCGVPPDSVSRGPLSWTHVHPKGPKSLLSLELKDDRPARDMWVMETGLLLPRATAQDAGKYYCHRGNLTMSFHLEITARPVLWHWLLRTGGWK

T3: human CD19 exon1-3-His tag protein (human, UniProt P15391 20-186, limits assumed)
T3 construct: membrane-distal part of the extracellular region, made in HEK293E cells; not shown: His tag
T3 sequence (looked up): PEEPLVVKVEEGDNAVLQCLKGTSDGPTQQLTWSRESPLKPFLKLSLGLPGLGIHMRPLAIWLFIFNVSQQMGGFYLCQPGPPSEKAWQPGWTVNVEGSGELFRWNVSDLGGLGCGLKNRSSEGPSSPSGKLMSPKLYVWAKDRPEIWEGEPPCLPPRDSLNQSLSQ

T4: Human CD19-his protein (human, UniProt P15391 20-291)
T4 construct: bought protein; also called recombinant human CD19-His; CD19 full-length protein; not shown: His tag
T4 sequence (looked up): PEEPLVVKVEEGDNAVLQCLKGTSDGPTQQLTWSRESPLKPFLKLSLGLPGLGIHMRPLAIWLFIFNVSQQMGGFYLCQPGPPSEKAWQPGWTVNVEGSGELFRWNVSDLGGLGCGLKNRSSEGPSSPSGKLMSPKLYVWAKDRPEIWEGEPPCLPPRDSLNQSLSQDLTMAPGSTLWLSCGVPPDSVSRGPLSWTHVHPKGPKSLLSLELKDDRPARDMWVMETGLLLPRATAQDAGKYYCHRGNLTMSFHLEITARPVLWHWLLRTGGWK


Experiments:
[1] = target: T1, murine CD19 protein; assay: ELISA, coated murine CD19
Experimental: (§1) Human CD19-his protein (purchased from ACROBiosystems, catalog number: CD9-H52H2) was diluted with PBS to a final concentration of 4 μg/mL, and then added to a 96-well ELISA plate at 100 μl/well. The plate was sealed with a plastic film and incubated overnight at 4° C., the plate was washed 2 times with PBS the next day, and then a blocking solution [PBS+2% (w/w) BSA] was added for blocking at room temperature for 2 h. The blocking solution was poured off, and 100 nM gradiently diluted CD19 chimeric antibody or control antibody was added at 50 μl/well. After incubation at 37° C. for 2 h, the plate was washed 3 times with PBS. […] TMB substrate was added at 50 μl/well, and incubated at room temperature for 10 min, and then a stop solution (1.0 N HCl) was added at 50 μl/well. The OD450 nm values were read by an ELISA microplate reader (Multimode Plate Reader, EnSight, purchased from Perkin Elmer).
In order to detect the species cross-binding activity of the chimeric antibodies, an ELISA plate was coated with commercial murine CD19 (ACROBiosystems, catalog number: 50510-M08H) and monkey CD19 (ACROBiosystems, catalog number: 90051-C08H), respectively, and the ELISA detection was performed according to the method in example 5.1.

[2] = target: T2, Human CD19-his protein; assay: ELISA, antibody at 10 nM
Experimental: as §1

[3] = target: T2, Human CD19-his protein; assay: ELISA, antibody at 100 nM
Experimental: as §1

[4] = target: T2, Human CD19-his protein; assay: ELISA, antibody at 0.01 nM
Experimental: as §1

[5] = target: T2, Human CD19-his protein; assay: ELISA, antibody at 0.10 nM
Experimental: as §1

[6] = target: T2, Human CD19-his protein; assay: ELISA, antibody at 1.00 nM
Experimental: as §1

[7] = target: T2, Human CD19-his protein; assay: ELISA, antibody at 0.001 nM
Experimental: as §1

[8] = target: T2, Human CD19-his protein; assay: ELISA, antibody at 0.0001 nM
Experimental: as §1

[9] = target: T2, Human CD19-his protein; assay: ELISA on coated human CD19-His
Experimental: as §1

[10] = target: T3, human CD19 exon1-3-His tag protein; assay: ELISA on coated human CD19 exon 1-3-His
[11] = target: T4, Human CD19-his protein; assay: SPR Biacore, Ab captured on Protein A, CD19-His analyte
Procedure, shortened: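 Antibodies were captured on a Protein A chip at 25 °C in HBS-EP+. Human CD19-His was injected for 240 s at 30 μl/min at 5 concentrations from 200 nM (1:1 dilutions), with dissociation up to 600 s. Data were double-referenced and fitted to a Langmuir 1:1 model for apparent KD.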

Row | Binder | binding result [1] | OD450 [2] | OD450 [3] | OD450 [4] | OD450 [5] | OD450 [6] | OD450 [7] | OD450 [8] | EC50 (read off the curve) [9] [nM] | binding result [10] | Kd [11] [nM] | koff [11] [s⁻¹] | kon [11] [M⁻¹ s⁻¹]
1 | F3.77.6 (antibody, human IgG1, V domains shown, human-murine chimeric antibody, human IgG1) VH: EFQLQQSGPELVKPGASVKISCKASGYSFTDYNMNWVKQSNGKSLEWIGTINPNYITSYNQKFKGKATLTVDQSSSTAYMQLNSLTSEDSAVYYCAGDYKGYWGQGTTLTVSS VL: not shown | no binding | 2.98 | 2.94 | 0.3 | 1.33 | 2.69 | 0.08 | 0.05 | ~0.1 |  |  |  | 
2 | F3.74.4 (antibody, human IgG1, V domains shown, human-murine chimeric antibody, human IgG1) VH: QVQLQQSGAELVRPGASVTLSCKASGYTFTDYEMHWVKQTPVHGLEWIGGIAPETGLTTYNQKFEDKAILTADKSSRTAYMELRSLTSEDSAVYFCNPNNYGLWGTGTTVTVSS VL: not shown | no binding | 2.64 | 2.96 | 0.21 | 1.02 | 2.32 | 0.07 | 0.05 | ~0.2 |  |  |  | 

Now from value to binder:

Row | binding result [1] | OD450 [2] | OD450 [3] | OD450 [4] | OD450 [5] | OD450 [6] | OD450 [7] | OD450 [8] | EC50 (read off the curve) [9] [nM] | binding result [10] | Kd [11] [nM] | koff [11] [s⁻¹] | kon [11] [M⁻¹ s⁻¹] | Binder
3 |  |  |  |  |  |  |  |  |  | no binding (tested: 100 nM) | 22.7 | 0.000774 | 34100 | F4.82.11 (antibody, human IgG1, V domains shown, human-murine chimeric antibody, human IgG1 constant) VH: QVTLKESGPGILQASQTLSLTCSFSGFSLSTFGIGVGWVRQPSGKGLEWLAHIWWNDNKFFNTTLKNRLTLSKDPSNNQVFLKIASVDTADTATYYCARSRSALITTGLYAMDYWGQGTSVTVSS VL: DIQMTQTPSSLSASLGDRVTISCRSSQDISNYVNWYQQKPDGTVKVLINYTSRLHSGVPSRFSGSGSGTDYSLTISNLEQEDIASYFCQQGFTLPYTFGGGTKLEIK
4 |  |  |  |  |  |  |  |  |  | no binding (tested: 100 nM) | 3.49 | 0.000122 | 35100 | F5.3.6 (antibody, human IgG1, V domains shown, human-murine chimeric antibody, human IgG1 constant) VH: DVQLQESGPGLVKPSQSQSLTCSVTGYSITSGYYWNWIRQFPGNKLEWMGYISYDGSNNYNPSLKNRISITRDTSKNQFFLKLNSVTTEDTVTYYCARAPLTGDRYWYFDVWGTGTTVTVSS VL: DIVLTQSPASLAVSLGQRATISCRASQSVSTSSYSYMHWYQQKPGQTPKLLIKYASNLKSGVPARFSGSGSGTDFTLNIHPVEEEDTATYYCQHSWEIPPTFGGGTKLEIK
